One may read the Kd as the free concentration of one partner at which half of the binding sites on the other are occupied at equilibrium, for simple one-to-one binding. A lower Kd goes with higher affinity. The term stoichiometry N denotes the number of molecules, sites or subunits per partner or assembly.

Results on three molecules are retold here after article PMC4688034 (Cell Reports, 2015).

One assay relates to γH2AX foci in HeLa cells. The experiment in a line: γH2AX focus formation after irradiation. It counts as cell-based. The note with it: 10 μM inhibitor, 1 hr prior to 3 Gy IR, fixed 30 min later.
Another assay has as its target 53BP1 BRCT2 domain (UniProt Q12888). Kind of assay: fluorescence polarization titration. The following applies: reference: pS139 peptide, untreated; sites S139. (In general: In fluorescence polarisation assays a small probe gives low polarisation when free and higher when bound to something large.)
The target in assay [1] is fluorescein-…pSQEY (γH2AX phosphopeptide) (human). Kind of assay: fluorescence polarisation.

On to `O=c1cc(-c2cccc3c2Sc2ccccc2S3)oc(N2CCOCC2)c1` [KU55933], for which the “γH2AX focus formation on irradiation” value with γH2AX foci in HeLa cells is reported as “substantially diminished”.

On to “H2AX (γH2AX when phosphorylated on Ser139) C-terminal 13 residues, 130-142 (from UniProt P16104) λ-phosphatase treated peptide”, for which the KD result with 53BP1 BRCT2 domain was “lost; reference 1.4 ± 0.15”.

As for “His6-SUMO-53BP1-BRCT2 (domain or fragment)”, the Kd in assay [1] was determined as 1400 nM. Also, in the assay with His6-SUMO-53BP1-BRCT2, the stoichiometry N is 2.
